# Data reported in the supplement of paper PMC11246515.
# ± gives the standard deviation of the averaged measurements.
# Experiment: total protein half-life in vivo (active degradation + dilution); higher = more stable protein
# [1] = E. coli NCM3722 delta-clpP delta-lon delta-hslV, growth: N-lim chemostat, doubling time 6 h
# [2] = E. coli NCM3722 delta-clpP, growth: N-lim chemostat, doubling time 6 h
# [3] = E. coli NCM3722 delta-hslV, growth: N-lim chemostat, doubling time 6 h
# [4] = E. coli NCM3722 delta-lon, growth: N-lim chemostat, doubling time 6 h
# [5] = E. coli NCM3722 delta-smpB, growth: N-lim chemostat, doubling time 6 h
# [6] = wild type E. coli NCM3722, growth: C-lim chemostat, doubling time 3 h
# [7] = wild type E. coli NCM3722, growth: C-lim chemostat, doubling time 6 h
# [8] = wild type E. coli NCM3722, growth: C-lim chemostat, doubling time 12 h
# [9] = wild type E. coli NCM3722, growth: N-lim chemostat, doubling time 6 h
# [10] = wild type E. coli NCM3722, growth: N-lim chemostat, doubling time 12 h
# [11] = wild type E. coli NCM3722, growth: P-lim chemostat, doubling time 6 h
# [12] = wild type E. coli NCM3722, growth: P-lim chemostat, doubling time 12 h
sequence,measurement,setting,value
MIEKLRNIAIIAHVDHGKTTLVDKLLQQSGTFDSRAETQERVMDSNDLEKERGITILAKNTAIKWNDYRINIVDTPGHADFGGEVERVMSMVDSVLLVVDAFDGPMPQTRFVTKKAFAYGLKPIVVINKVDRPGARPDWVVDQVFDLFVNLDATDEQLDFPIVYASALNGIAGLDHEDMAEDMTPLYQAIVDHVPAPDVDLDGPFQMQISQLDYNSYVGVIGIGRIKRGKVKPNQQVTIIDSEGKTRNAKVGKVLGHLGLERIETDLAEAGDIVAITGLGELNISDTVCDTQNVEALPALSVDEPTVSMFFCVNTSPFCGKEGKFVTSRQILDRLNKELVHNVALRVEETEDADAFRVSGRGELHLSVLIENMRREGFELAVSRPKVIFREIDGRKQEPYENVTLDVEEQHQGSVMQALGERKGDLKNMNPDGKGRVRLDYVIPSRGLIGFRSEFMTMTSGTGLLYSTFSHYDDVRPGEVGQRQNGVLISNGQGKAVAFALFGLQDRGKLFLGHGAEVYEGQIIGIHSRSNDLTVNCLTGKKLTNMRASGTDEAVVLVPPIRMTLEQALEFIDDDELVEVTPTSIRIRKRHLTENDRRRANRAPKDD,total protein half-life in vivo,[1],5.32 ± 0.47 h
same,total protein half-life in vivo,[2],4.79 ± 0.39 h
same,total protein half-life in vivo,[3],4.54 ± 0.41 h
same,total protein half-life in vivo,[4],5.61 ± 0.38 h
same,total protein half-life in vivo,[5],4.62 ± 0.21 h
same,total protein half-life in vivo,[6],2.899 ± 0.022 h
same,total protein half-life in vivo,[7],5.8018 ± 0.005 h
same,total protein half-life in vivo,[8],9.75 ± 0.82 h
same,total protein half-life in vivo,[9],4.387 ± 0.029 h
same,total protein half-life in vivo,[10],6.89 ± 0.16 h
same,total protein half-life in vivo,[11],5.58 ± 0.15 h
same,total protein half-life in vivo,[12],10.9 ± 0.83 h
MIWIMLATLAVVFVVGFRVLTSGARKAIRRLSDRLNIDVVPVESMVDQMGKSAGDEFLRYLHRPDESHLQNAAQVLLIWQIVIVDGSEQNLLQWHRILQKARLAAPITDAQVRLALGFLRETEPEMQDINAFQMRYNAFFQPAEGVHWLH [P0ADL3],total protein half-life in vivo,[1],5.96 ± 1.4 h
same,total protein half-life in vivo,[2],5.141 ± 0.016 h
same,total protein half-life in vivo,[3],4.75 h
same,total protein half-life in vivo,[5],4.7 ± 0.11 h
same,total protein half-life in vivo,[6],2.98 ± 0.21 h
same,total protein half-life in vivo,[7],5.07 ± 0.086 h
same,total protein half-life in vivo,[8],10.9 ± 2.9 h
same,total protein half-life in vivo,[9],4.71 h
same,total protein half-life in vivo,[10],10.8 h
same,total protein half-life in vivo,[11],4.65 ± 0.24 h
same,total protein half-life in vivo,[12],9.29 ± 1.7 h
MAIKLIAIDMDGTLLLPDHTISPAVKNAIAAARARGVNVVLTTGRPYAGVHNYLKELHMEQPGDYCITYNGALVQKAADGSTVAQTALSYDDYRFLEKLSREVGSHFHALDRTTLYTANRDISYYTVHESFVATIPLVFCEAEKMDPNTQFLKVMMIDEPAILDQAIARIPQEVKEKYTVLKSAPYFLEILDKRVNKGTGVKSLADVLGIKPEEIMAIGDQENDIAMIEYAGVGVAMDNAIPSVKEVANFVTKSNLEDGVAFAIEKYVLN [P0A8Y5],total protein half-life in vivo,[1],4 ± 0.43 h
same,total protein half-life in vivo,[2],3.61 ± 0.23 h
same,total protein half-life in vivo,[3],3.55 ± 0.38 h
same,total protein half-life in vivo,[4],3.69 ± 0.1 h
same,total protein half-life in vivo,[5],3.408 ± 0.021 h
same,total protein half-life in vivo,[6],3.08 ± 0.22 h
same,total protein half-life in vivo,[7],5.71 ± 0.32 h
same,total protein half-life in vivo,[8],9.92 ± 0.27 h
same,total protein half-life in vivo,[9],3.52 ± 0.2 h
same,total protein half-life in vivo,[10],5.28 ± 0.29 h
same,total protein half-life in vivo,[11],5.06 ± 0.13 h
same,total protein half-life in vivo,[12],11.4 ± 0.92 h
MTQYWLGLDCGGSWLKAGLYDREGREAGVQRLPLCALSPQPGWAERDMAELWQCCMAVIRALLTHSGVSGEQIVGIGISAQGKGLFLLDKNDKPLGNAILSSDRRAMEIVRRWQEDGIPEKLYPLTRQTLWTGHPVSLLRWLKEHEPERYAQIGCVMMTHDYLRWCLTGVKGCEESNISESNLYNMSLGEYDPCLTDWLGIAEINHALPPVVGSAEICGEITAQTAALTGLKAGTPVVGGLFDVVSTALCAGIEDEFTLNAVMGTWAVTSGITRGLRDGEAHPYVYGRYVNDGEFIVHEASPTSSGNLEWFTAQWGEISFDEINQAVASLPKAGGDLFFLPFLYGSNAGLEMTSGFYGMQAIHTRAHLLQAIYEGVVFSHMTHLNRMRERFTDVHTLRVTGGPAHSDVWMQMLADVSGLRIELPQVEETGCFGAALAARVGTGVYHNFSEAQRDLRHPVRTLLPDMTAHQLYQKKYQRYQHLIAALQGFHARIKEHTL,total protein half-life in vivo,[7],4.05 ± 1.2 h
same,total protein half-life in vivo,[8],7.19 ± 1.2 h
MTLSFVTRWRDELPETYTALSPTPLNNARLIWHNTELANTLSIPSSLFKNGAGVWGGEALLPGMSPLAQVYSGHQFGVWAGQLGDGRGILLGEQLLADGTTMDWHLKGAGLTPYSRMGDGRAVLRSTIRESLASEAMHYLGIPTTRALSIVTSDSPVYRETAEPGAMLMRVAPSHLRFGHFEHFYYRRESEKVRQLADFAIRHYWSHLADDEDKYRLWFSDVVARTASLIAQWQTVGFAHGVMNTDNMSLLGLTLDYGPFGFLDDYEPGFICNHSDHQGRYSFDNQPAVALWNLQRLAQTLSPFVAVDALNEALDSYQQVLLTHYGERMRQKLGFMTEQKEDNALLNELFSLMARERSDYTRTFRMLSLTEQHSAASPLRDEFIDRAAFDDWFARYRGRLQQDEVSDSERQQLMQSVNPALVLRNWLAQRAIEAAEKGDMTELHRLHEALRNPFSDRDDDYVSRPPDWGKRLEVSCSS,total protein half-life in vivo,[1],4.63 ± 0.32 h
same,total protein half-life in vivo,[2],4.26 ± 0.67 h
same,total protein half-life in vivo,[3],3.15 ± 0.38 h
same,total protein half-life in vivo,[4],3.26 ± 0.13 h
same,total protein half-life in vivo,[5],2.8 ± 0.21 h
same,total protein half-life in vivo,[6],2.72 ± 0.068 h
same,total protein half-life in vivo,[7],4.57 ± 0.15 h
same,total protein half-life in vivo,[8],8.02 ± 1.4 h
same,total protein half-life in vivo,[9],2.971 ± 0.012 h
same,total protein half-life in vivo,[10],4.63 ± 0.64 h
same,total protein half-life in vivo,[11],4.72 ± 0.71 h
same,total protein half-life in vivo,[12],8.293 ± 0.077 h
MNNMFEPPKNYNEMLPKLHKATFLNTLIYCILLVIYEYIPLITLPTKYVPPIKDHESFINWALSFGILPCAFAIFAYLISGALDLHNNAAKLLRVRYLWDKHLIIKPLSRRAGVNRKLNKDEAHNVMSNLYYPEVRKIEDKHYIELFWNKVYYFWIFFEFSIIALISFLIIFFCKQMDIFHVEGSLLSLFFFVILSFSVSGIIFALTVKPRTESQVGKIPDDKIKEFFTKNNIN,total protein half-life in vivo,[1],5.36 h
same,total protein half-life in vivo,[3],4.62 h
same,total protein half-life in vivo,[5],5.48 ± 0.069 h
same,total protein half-life in vivo,[6],2.94 h
same,total protein half-life in vivo,[7],4.97 ± 0.76 h
same,total protein half-life in vivo,[8],10.6 ± 0.83 h
same,total protein half-life in vivo,[9],5.04 h
same,total protein half-life in vivo,[10],7.86 h
same,total protein half-life in vivo,[11],5.56 ± 0.71 h
same,total protein half-life in vivo,[12],11.3 ± 1.6 h
MSQATSMRKRHRFNSRMTRIVLLISFIFFFGRFIYSSVGAWQHHQSKKEAQQSTLSVESPVQR,total protein half-life in vivo,[1],4.55 h
same,total protein half-life in vivo,[2],4.47 h
same,total protein half-life in vivo,[3],4.32 h
same,total protein half-life in vivo,[4],4.57 ± 0.97 h
same,total protein half-life in vivo,[5],4.09 ± 0.36 h
same,total protein half-life in vivo,[6],1.7 ± 0.046 h
same,total protein half-life in vivo,[7],3.19 h
same,total protein half-life in vivo,[8],5.95 h
same,total protein half-life in vivo,[9],3.526 ± 0.027 h
same,total protein half-life in vivo,[10],7.56 ± 0.76 h
same,total protein half-life in vivo,[12],4.32 ± 0.086 h
MFNRIRISTTLFLILILCGILQIGSNGMSFWAFRDDLQRLNQVEQSNQQRAALAQTRAVMLQASTALNKAGTLTALSYPADDIKTLMTTARASLTQSTTLFKSFMAMTAGNEHVRGLQKETEKSFARWHNDLEHQATWLESNQLSDFLTAPVQGSQNAFDVNFEAWQLEINHVLEAASAQSQRNYQISALVFISMIIVAAIYISSALWWTRKMIVQPLAIIGSHFDSIAAGNLARPIAVYGRNEITAIFASLKTMQQALRGTVSDVRKGSQEMHIGIAEIVAGNNDLSSRTEQQAASLAQTAASMEQLTATVGQNADNARQASELAKNAATTAQAGGVQVSTMTHTMQEIATSSQKIGDIISVIDGIAFQTNILALNAAVEAARAGEQGRGFAVVAGEVRNLASRSAQAAKEIKGLIEESVNRVQQGSKLVNNAAATMIDIVSSVTRVNDIMGEIASASEEQQRGIEQVAQAVSQMDQVTQQNASLVEEAAVATEQLANQADHLSSRVAVFTLEEHEVARHESVQLQIAPVVS,total protein half-life in vivo,[2],6.16 h
same,total protein half-life in vivo,[5],> 8 h
same,total protein half-life in vivo,[6],1.87 ± 0.38 h
same,total protein half-life in vivo,[7],3.01 ± 0.33 h
same,total protein half-life in vivo,[8],4.13 ± 0.71 h
